Test in all cases: sandwich ELISA, STAT protein coated at 0.5 µg/mL
The target of experiment [1] is T1, STAT 1 protein (UniProt P42224 1-750, limits assumed).
T1 sequence (looked up): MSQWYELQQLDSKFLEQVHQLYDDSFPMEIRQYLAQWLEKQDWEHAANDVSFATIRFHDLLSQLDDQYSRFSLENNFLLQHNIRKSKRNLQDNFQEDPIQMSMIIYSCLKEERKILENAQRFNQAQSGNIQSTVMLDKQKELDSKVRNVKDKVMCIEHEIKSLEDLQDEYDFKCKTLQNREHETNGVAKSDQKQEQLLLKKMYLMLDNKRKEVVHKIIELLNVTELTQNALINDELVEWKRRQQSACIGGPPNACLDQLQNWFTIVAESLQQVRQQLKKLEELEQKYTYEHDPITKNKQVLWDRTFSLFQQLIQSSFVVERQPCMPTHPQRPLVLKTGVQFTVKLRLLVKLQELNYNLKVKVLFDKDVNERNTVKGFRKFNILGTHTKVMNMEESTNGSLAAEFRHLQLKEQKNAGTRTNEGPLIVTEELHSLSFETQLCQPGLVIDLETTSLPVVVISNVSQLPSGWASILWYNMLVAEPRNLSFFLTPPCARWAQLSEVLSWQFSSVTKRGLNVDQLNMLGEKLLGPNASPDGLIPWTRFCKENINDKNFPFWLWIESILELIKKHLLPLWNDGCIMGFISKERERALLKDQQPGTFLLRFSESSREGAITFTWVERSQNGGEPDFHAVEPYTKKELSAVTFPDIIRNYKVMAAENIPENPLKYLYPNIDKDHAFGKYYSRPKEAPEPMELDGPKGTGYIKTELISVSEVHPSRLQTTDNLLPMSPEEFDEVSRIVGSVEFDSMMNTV

For experiment [2], the target named is T2, STAT 2 protein (UniProt P52630 1-851, limits assumed).
T2 sequence (P52630 whole entry): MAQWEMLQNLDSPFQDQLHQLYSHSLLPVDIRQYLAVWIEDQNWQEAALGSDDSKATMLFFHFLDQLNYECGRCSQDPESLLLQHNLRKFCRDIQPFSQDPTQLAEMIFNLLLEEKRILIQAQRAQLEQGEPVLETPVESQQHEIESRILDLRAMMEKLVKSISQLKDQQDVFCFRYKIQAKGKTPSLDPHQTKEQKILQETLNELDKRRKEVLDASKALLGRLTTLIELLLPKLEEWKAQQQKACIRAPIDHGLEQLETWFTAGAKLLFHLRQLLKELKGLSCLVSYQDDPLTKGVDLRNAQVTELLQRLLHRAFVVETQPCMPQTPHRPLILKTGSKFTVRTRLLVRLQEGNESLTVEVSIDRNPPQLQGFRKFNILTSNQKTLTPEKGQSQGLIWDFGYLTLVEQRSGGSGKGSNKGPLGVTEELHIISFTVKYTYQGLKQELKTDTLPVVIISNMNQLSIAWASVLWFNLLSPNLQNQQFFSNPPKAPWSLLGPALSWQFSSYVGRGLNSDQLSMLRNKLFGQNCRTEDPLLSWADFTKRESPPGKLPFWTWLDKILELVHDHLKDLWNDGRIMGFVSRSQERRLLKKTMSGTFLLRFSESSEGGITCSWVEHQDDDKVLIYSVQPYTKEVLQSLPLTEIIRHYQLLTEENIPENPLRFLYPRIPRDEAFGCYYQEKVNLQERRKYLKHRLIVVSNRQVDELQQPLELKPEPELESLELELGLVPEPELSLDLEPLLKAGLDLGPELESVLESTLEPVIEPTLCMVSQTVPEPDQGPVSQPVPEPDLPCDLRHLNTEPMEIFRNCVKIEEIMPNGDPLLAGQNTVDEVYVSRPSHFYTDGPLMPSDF
The target of experiment [3] is T3, STAT 3 protein (UniProt P40763 1-770, limits assumed).
Experiment [4] deals with T4, STAT 4 protein (UniProt Q14765 1-748, limits assumed).
T4 sequence (looked up): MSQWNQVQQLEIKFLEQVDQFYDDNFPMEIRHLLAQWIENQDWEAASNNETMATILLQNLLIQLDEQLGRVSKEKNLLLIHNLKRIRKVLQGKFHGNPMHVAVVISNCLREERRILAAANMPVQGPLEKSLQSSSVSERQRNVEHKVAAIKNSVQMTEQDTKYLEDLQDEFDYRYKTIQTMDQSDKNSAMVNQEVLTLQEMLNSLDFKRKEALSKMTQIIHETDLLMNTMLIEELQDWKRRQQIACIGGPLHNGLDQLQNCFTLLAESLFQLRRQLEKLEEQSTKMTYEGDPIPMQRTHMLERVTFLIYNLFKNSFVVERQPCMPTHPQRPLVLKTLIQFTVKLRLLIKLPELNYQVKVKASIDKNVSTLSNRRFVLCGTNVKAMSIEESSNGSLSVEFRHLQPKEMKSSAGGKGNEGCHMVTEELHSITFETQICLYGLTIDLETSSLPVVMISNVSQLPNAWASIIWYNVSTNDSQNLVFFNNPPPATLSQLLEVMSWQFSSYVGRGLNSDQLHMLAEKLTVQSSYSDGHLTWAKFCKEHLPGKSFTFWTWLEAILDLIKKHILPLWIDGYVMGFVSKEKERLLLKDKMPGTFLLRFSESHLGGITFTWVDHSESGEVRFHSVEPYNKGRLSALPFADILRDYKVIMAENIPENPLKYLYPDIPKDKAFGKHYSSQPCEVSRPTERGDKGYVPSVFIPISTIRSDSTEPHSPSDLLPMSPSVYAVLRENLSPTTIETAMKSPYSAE

Experiment [5] has as its target T1, STAT 1 protein. This is another data set of the same source.
Experiment [6] addresses T2, STAT 2 protein. The source holds these as a separate data set.
Experiment [7] deals with T3, STAT 3 protein. The source holds these as a separate data set.
The target in experiment [8] is T4, STAT 4 protein. The source holds these as a separate data set.
Experiment [9] concerns the target T5, STAT 5a protein (UniProt P42229 1-794, limits assumed).
T5 sequence (looked up): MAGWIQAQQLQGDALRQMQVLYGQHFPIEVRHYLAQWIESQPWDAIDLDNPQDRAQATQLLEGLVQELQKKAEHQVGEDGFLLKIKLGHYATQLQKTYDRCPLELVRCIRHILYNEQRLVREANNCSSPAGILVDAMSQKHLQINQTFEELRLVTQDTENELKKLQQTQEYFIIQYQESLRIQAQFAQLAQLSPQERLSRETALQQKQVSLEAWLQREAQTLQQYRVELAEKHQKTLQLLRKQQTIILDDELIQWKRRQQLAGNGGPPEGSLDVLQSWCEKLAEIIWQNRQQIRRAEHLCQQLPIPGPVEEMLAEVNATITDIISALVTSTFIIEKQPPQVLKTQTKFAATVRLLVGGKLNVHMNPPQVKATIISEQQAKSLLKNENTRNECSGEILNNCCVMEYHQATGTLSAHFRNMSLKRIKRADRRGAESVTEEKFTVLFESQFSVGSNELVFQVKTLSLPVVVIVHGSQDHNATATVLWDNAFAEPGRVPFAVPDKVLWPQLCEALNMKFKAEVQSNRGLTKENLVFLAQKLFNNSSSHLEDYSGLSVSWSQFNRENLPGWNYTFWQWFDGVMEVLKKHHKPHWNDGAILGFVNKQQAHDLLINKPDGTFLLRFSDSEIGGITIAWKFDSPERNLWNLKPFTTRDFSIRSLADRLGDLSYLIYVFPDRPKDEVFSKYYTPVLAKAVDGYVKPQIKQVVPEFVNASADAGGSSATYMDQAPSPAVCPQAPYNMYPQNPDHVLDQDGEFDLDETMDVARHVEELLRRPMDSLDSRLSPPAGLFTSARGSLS

Read-outs that look alike come from different tables or passages of the source.

B1: anti-STAT3 VHH13 (SEQ ID NO:3) sdAb (VHH)
VHH: HVQLVESGGGSVQAGGSLRLSCAASGANGGRSCMGWFRQVPGKEREGVSGISTGGLITYYADSVKGRFTISQDNTKNTLYLQMNSLKPEDTAMYYCATSRFDCYRGSWFNRYMYNSWGQGTQVTVSS
For B1, the “Mean OD450” value is 3.16 OD450 in [1]; 3.34 OD450 in experiment [2]; 3.67 OD450 in experiment [3]; 3.67 OD450 in [4]; 0.026 OD450 in experiment [5]; 0.023 OD450 in experiment [6]. In addition, the entries for the “Mean OD450” value in experiment [7], in [8] and in experiment [9] were 0.063 OD450, 0.083 OD450 and 0.107 OD450, respectively.

These data come from patent publication US20170327598A1 (published 2017).
